Assay results taken from the supplement of paper PMC10126150.
± gives the standard deviation of the averaged measurements.

System: ATP
Test: switch fluorescence ratio, 500 uM ATP over buffer (Cy3 cluster intensity, sum of 5 cycles each) (fold (ratio)); higher = stronger signal-on switching upon ATP binding; sequences stand for … in TCGTCGGCAGCGTCAGATGTGTATAAGAGACAGTTTTTTTTTTTTTTTTTTTTTTTTT…TC
Conditions: aptamer strand: ATP DNA aptamer (quencher-CACCTGGGGGAGTATTGCGGAGGAAGG + anchor), 100 nM annealed; ATP concentration: 500 uM
Method in brief: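 The fluorescence ratio divides summed target-cycle Cy3 intensity by summed buffer-cycle Cy3 intensity for each cluster and is averaged per switch-domain sequence. Cy3-labelled switching-strand clusters on a modified Illumina MiSeq flow-cell were annealed to 100 nM quencher-labelled ATP aptamer, then imaged in selection buffer and again after 15 min with 500 uM ATP at 22 °C. Five such cycles were run, with NaOH stripping and re-annealing between them, and clusters outside 100-1000 RFU were excluded.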
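Note: ATP exposure 15 min at 22 °C before imaging.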

GTTCGGAATT
switch fluorescence ratio: 1.031 ± 0.0013

GTTCGGCGAT
switch fluorescence ratio: 1.03 ± 0.013

GTTCGGGCAT
switch fluorescence ratio: 1.07 ± 0.026

GTTCGGGGTA
switch fluorescence ratio: 0.995 ± 0.031

GTTCTCATTT
switch fluorescence ratio: 0.995 ± 0.025

GTTCTGAGGT
switch fluorescence ratio: 1 ± 0.0014

GTTCTTCAGA
switch fluorescence ratio: 0.9705 ± 0.0056

GTTCTTGAAA
switch fluorescence ratio: 0.977 ± 0.036

GTTCTTTGT
switch fluorescence ratio: 0.9894 ± 0.0093

GTTGAACCGG
switch fluorescence ratio: 0.988 ± 0.02

GTTGAATATG
switch fluorescence ratio: 1.01 ± 0.029

GTTGACGGTA
switch fluorescence ratio: 1.01 ± 0.015

GTTGACTCAT
switch fluorescence ratio: 0.97827 ± 0.00051

GTTGAGAGTG
switch fluorescence ratio: 1 ± 0.049

GTTGAGCGTC
switch fluorescence ratio: 0.955 ± 0.032

GTTGAGGGGG
switch fluorescence ratio: 1.01 ± 0.047

GTTGAGGGGT
switch fluorescence ratio: 0.993 ± 0.027

GTTGATTCTA
switch fluorescence ratio: 0.988 ± 0.034

GTTGATTTGC
switch fluorescence ratio: 1.02 ± 0.089

GTTGATTTTT
switch fluorescence ratio: 0.982 ± 0.018

GTTGCAAAAA
switch fluorescence ratio: 1.18 ± 0.32

GTTGCACTGG
switch fluorescence ratio: 1.01 ± 0.011

GTTGCAGTCA
switch fluorescence ratio: 0.949 ± 0.042

GTTGCATTCA
switch fluorescence ratio: 1.01 ± 0.033

GTTGCGAGGG
switch fluorescence ratio: 1.02 ± 0.016

GTTGCTAGTA
switch fluorescence ratio: 1 ± 0.011

GTTGCTATGA
switch fluorescence ratio: 1.02 ± 0.017

GTTGCTGTCA
switch fluorescence ratio: 1.06 ± 0.043

GTTGGAATCG
switch fluorescence ratio: 0.991 ± 0.018

GTTGGAATTT
switch fluorescence ratio: 0.966 ± 0.023

GTTGGACTGG
switch fluorescence ratio: 1.01 ± 0.037

GTTGGAGCAT
switch fluorescence ratio: 1.086 ± 0.0023

GTTGGAGGCG
switch fluorescence ratio: 0.969 ± 0.049

GTTGGATGGT
switch fluorescence ratio: 0.964 ± 0.019

GTTGGATTAG
switch fluorescence ratio: 0.993 ± 0.017

GTTGGCATTA
switch fluorescence ratio: 1.03 ± 0.023

GTTGGGAAGA
switch fluorescence ratio: 1.01 ± 0.034

GTTGGGAGCA
switch fluorescence ratio: 1.004 ± 0.0072

GTTGGGAGGT
switch fluorescence ratio: 0.982 ± 0.015

GTTGGGATTC
switch fluorescence ratio: 0.986 ± 0.049

GTTGGGGCGT
switch fluorescence ratio: 0.97 ± 0.044

GTTGGGGGAA
switch fluorescence ratio: 0.983 ± 0.023

GTTGGGGTAA
switch fluorescence ratio: 0.9927 ± 0.0067

GTTGGGGTGG
switch fluorescence ratio: 1.04 ± 0.12

GTTGGGTACT
switch fluorescence ratio: 0.998 ± 0.037

GTTGGGTTCC
switch fluorescence ratio: 1.02 ± 0.02

GTTGGGTTCT
switch fluorescence ratio: 1.03 ± 0.021

GTTGGGTTGC
switch fluorescence ratio: 0.999 ± 0.018

GTTGGTAATT
switch fluorescence ratio: 0.987 ± 0.015

GTTGGTATGA
switch fluorescence ratio: 0.989 ± 0.017

GTTGGTATT
switch fluorescence ratio: 1.01 ± 0.024

GTTGGTCCTT
switch fluorescence ratio: 0.9928 ± 0.003

GTTGGTCGGG
switch fluorescence ratio: 1.02 ± 0.037

GTTGGTGTGT
switch fluorescence ratio: 0.9667 ± 0.0071

GTTGTAATGG
switch fluorescence ratio: 1.01 ± 0.049

GTTGTAGCTC
switch fluorescence ratio: 1 ± 0.023

GTTGTAGTGT
switch fluorescence ratio: 1.011 ± 0.0011

GTTGTATCAT
switch fluorescence ratio: 0.98846 ± 0.00088

GTTGTATTGT
switch fluorescence ratio: 0.999 ± 0.019

GTTGTCAATG
switch fluorescence ratio: 0.974 ± 0.021

GTTGTCATGT
switch fluorescence ratio: 0.991 ± 0.017

GTTGTCCGGG
switch fluorescence ratio: 1 ± 0.027

GTTGTGGTCA
switch fluorescence ratio: 0.9771 ± 0.0067

GTTGTGGTTG
switch fluorescence ratio: 0.987 ± 0.035

GTTGTGTGAT
switch fluorescence ratio: 0.982 ± 0.027

GTTGTGTGTT
switch fluorescence ratio: 0.975 ± 0.016

GTTGTTGAGG
switch fluorescence ratio: 0.999 ± 0.012

GTTGTTGGGG
switch fluorescence ratio: 0.974 ± 0.043

GTTGTTGTTG
switch fluorescence ratio: 0.996 ± 0.045

GTTTAACCCG
switch fluorescence ratio: 1.002 ± 0.0033

GTTTAAGCGG
switch fluorescence ratio: 0.969 ± 0.034

GTTTAAGGGG
switch fluorescence ratio: 1.005 ± 0.0068

GTTTAATGTT
switch fluorescence ratio: 1.023 ± 0.0022

GTTTAATTGA
switch fluorescence ratio: 0.9676 ± 0.0018

GTTTACAAGT
switch fluorescence ratio: 0.992 ± 0.027

GTTTACGGGG
switch fluorescence ratio: 0.997 ± 0.041

GTTTACTGAA
switch fluorescence ratio: 1.01 ± 0.018

GTTTACTTAG
switch fluorescence ratio: 1.024 ± 0.005

GTTTACTTAT
switch fluorescence ratio: 1.037 ± 0.0024

GTTTAGAATT
switch fluorescence ratio: 1.004 ± 0.01

GTTTAGGGGG
switch fluorescence ratio: 0.994 ± 0.018

GTTTATAAAG
switch fluorescence ratio: 0.9899 ± 0.0023

GTTTATCTGC
switch fluorescence ratio: 1.02 ± 0.025

GTTTATGCAG
switch fluorescence ratio: 0.968 ± 0.017

GTTTATGTAC
switch fluorescence ratio: 1.07 ± 0.065
